Columns and labels:
[1] = Atomic force microscopy (AFM) size of DNA tile on mica; assay type: physicochemical; conditions: dried on mica, non-contact mode; theoretical value 40 nm
Text: The DNA tile samples taken from the hybridization media were dropped on mica surface for deposition and subsequently washed with deionized water. When the dropped DNA samples on mica were dried, images acquired at non-contact mode. Considering the distance between the base pairs in the DNA as 0.34 nm and the number of the base pairs in the DNA tile structure from one end to another, […], the theoretical length of an assembled DNA tile can be estimated as 40 nm. A representative AFM image obtained from the DNA tile containing dried droplet area is shown on FIG. 2. […] The marked structure is measured as 64 nm, which is larger than the theoretical value of 40 nm. […] Considering the fact that the formation of DNA based structures is not always 100 percent efficient, this deviation can be acceptable.

MDA-MB-231 cell line = assay: Cytotoxicity of the DNA origami carrier (cell viability); assay type: cell-based; conditions: MDA-MB-231, concentration range 50-400 nM
Procedure: The cytotoxicity assessments of the DNA origami structure were carried out on MDA-MB-231 cell line at a concentration range of 50-400 nM. According to the cell viability results of the experiment, the DNA-tiles are non-toxic to the cells.

[2] = Dynamic light scattering analysis of hydrodynamic size; assay type: physicochemical; conditions: DLS, dispersed in water
Procedure: In step 1), 2 μL of each complementary oligonucleotide from a 100 μM stock is added into the hybridization buffer TAE/Mg^2+ to have a final volume of 200 μL. The newly prepared DNA origami carrier is characterized using AFM, agarose gel electrophoresis and dynamic light scattering analysis.
For DLS measurements, DNA tiles are dispersed in water. In water, DNA tiles are solvated by water molecules. This hydration layer causes grater diameter than theoretical size of the structure. Hydrodynamic size of DNA tiles was determined as approximately 50 nm, which is in good agreement with AFM results.

B1: DNA tiles: tile shaped DNA origami structure prepared by hybridizing nine complementary oligonucleotides (SEQ ID NOS: 1-9) (nucleic acid)
DNA 1: AGGCACCATCGTAGGAAAATCTGCGTCAGCTCTCCGTACACCAGTGCTTCCATGCGAAGTAAAACGTTCCGATCACCAACGGAGTAAAACGATCTAACTGATAACTAGCACCTCTGCTCACGTGAGGAGTAAAACTTGCC
DNA 2: ATACCGGAGGCTTCCTGTACGGAGAGCTGACGCAGACCTACGATGGACACGCCG
DNA 3: ATGCAACCTGCCTGGCAAGACTCCTCACGTGAGCAGAGGACTACTCATCCGTTA
DNA 4: TTTCCGACTGAGCCCTGCTAGTTATCAGTTAGATCGACTCCGTTGGACGAACAG
DNA 5: ATAGCGCCTGATCGGAACGACTTCGCATGGAAGCACTGGACCGTTCTACCGATT
DNA 6: CTCGCAATCGGTAGAACGGTGGAAGCCTCCGGTATGCATG
DNA 7: AAAAAAAAAACGGCGTGTGGTTGCATAAAAAAAAAA
DNA 8: CGCTATAACGGATGAGTAGTGGGCTCAGTCGGAAAGAGCA
DNA 9: AAAAAAAAAACTGTTCGTGGCGCTATAAAAAAAAAA
modifications: Oligonucleotide 1; Oligonucleotide 2; Oligonucleotide 3; Oligonucleotide 4; Oligonucleotide 5; Oligonucleotide 6; Oligonucleotide 7; Oligonucleotide 8; Oligonucleotide 9
- Size of marked structure in AFM image [1]: 64 nm
- Cytotoxicity (cell viability) (MDA-MB-231 cell line): non-toxic
- Hydrodynamic size [2]: approximately 50 nm

Source: patent publication US10967064B2, “Preparation method for a DNA origami based carrier system” (YEDITEPE UNIVERSITESI, priority 2016, dated 2021)
